Reference: patent publication US20190308168A1

What was measured:
Conditions in all cases: scale: mg Gammanorm/ml chromatography matrix(gel)
[1] = biological target: GAMMANORM 165 mg/ml (Octapharma no. 00 86 64), human normal immunoglobulin (human); test: column dynamic binding capacity at 10% breakthrough, after 3 h accumulated in 0.5 M NaOH
[2] = biological target: GAMMANORM 165 mg/ml (Octapharma no. 00 86 64), human normal immunoglobulin (human); test: column dynamic binding capacity at 10% breakthrough, after 15 h accumulated in 0.5 M NaOH
[3] = biological target: GAMMANORM 165 mg/ml (Octapharma no. 00 86 64), human normal immunoglobulin (human); test: column dynamic binding capacity at 10% breakthrough, after 20 h accumulated in 0.5 M NaOH
[4] = biological target: GAMMANORM 165 mg/ml (Octapharma no. 00 86 64), human normal immunoglobulin (human); test: column dynamic binding capacity at 10% breakthrough, after 1 h accumulated in 0.5 M NaOH
[5] = biological target: GAMMANORM 165 mg/ml (Octapharma no. 00 86 64), human normal immunoglobulin (human); test: column dynamic binding capacity at 10% breakthrough, after 10 h accumulated in 0.5 M NaOH
[6] = biological target: GAMMANORM 165 mg/ml (Octapharma no. 00 86 64), human normal immunoglobulin (human); test: column dynamic binding capacity at 10% breakthrough, before NaOH incubation
[7] = biological target: GAMMANORM 165 mg/ml (Octapharma no. 00 86 64), human normal immunoglobulin (human); test: column dynamic binding capacity at 10% breakthrough, after 5 h accumulated in 0.5 M NaOH

| Sequence | Capacity after 3 h [1] | Capacity after 15 h [2] | Capacity after 20 h [3] | Capacity after 1 h [4] | Capacity after 10 h [5] | Capacity (Start Capacity 1) [6] | Capacity (Start Capacity 2) [6] | Capacity after 5 h [7] |
| --- | --- | --- | --- | --- | --- | --- | --- | --- |
| MABSELECT ligand (recombinant Protein A consisting of five homologous domains E, D, A, B, C), coupled to agarose particles (from UniProt P38507 37-327) | 23.1 | 12.5 | 10.1 | 27 | 15.8 | 29 | 29 | 20.3 |
| MABSELECT SURE ligand (four domains originating from the domain B analogue Z, stabilized against high pH by protein engineering), coupled to agarose particles (designed binder) | 28.4 | 27 | 25.9 | 29.3 | 27.9 | 28.4 | 28.1 | 28.2 |
